These results are taken from the supplement of paper PMC10567573.

A short description of the data set: protein stability index of a GFP-peptide fusion (GPS, HEK-293T) (PSI 1-6); higher = more stable.
The mark [1] stands for this setting: treatment: DMSO, c terminus: a fixed tail appended.
[2] abbreviates: treatment: MLN4924 1 uM, 8 h, c terminus: a fixed tail appended.
Setting [3] is: treatment: DMSO, c terminus: native.
The mark [4] stands for this setting: treatment: MLN4924 1 uM, 8 h, c terminus: native.

± gives the standard deviation.
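Note: 24-mer peptide tiles fused after GFP, lentivirally expressed, FACS-sorted into six equal bins by GFP/DsRed ratio, decoded by Illumina sequencing, PSI is the read-weighted mean bin number.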

Consider VASRNLFPKDTLMNLHVYISEHEH [CLPTM1], for which the protein stability index under setting [1] is 2.35 ± 0.34 and the protein stability index under setting [2] was determined as 2.37 ± 0.51.

On to VATGSQQSLAQPLPGNTTEATPRS, for which the protein stability index reads like this: under setting [1], 5.42 ± 0.44; under setting [2], 5.28 ± 0.43.

The sequence VCCNPYHFSRLCGPESPPPPYSRL [SMAD6] registered a protein stability index under setting [1] of 2.15 ± 0.36 and a protein stability index under setting [2] of 2.15 ± 0.18.

As to VCDSCYDSIKDEDRTSLATFHEGK [WDFY1], the protein stability index under setting [1] is 4.62 ± 0.28 and the protein stability index under setting [2] came to 4.83 ± 0.26.

Take VDQKLELNIVPRTKVVYLASETFN [PI4K2A]: the protein stability index is 2.38 ± 0.23 under setting [1] and 2.51 ± 0.25 under setting [2].

As for VEEPSSKDVMEKREDSKEAEKSGE [CHGA], the protein stability index runs as follows: under setting [1], 5.5 ± 0.36; under setting [2], 5.58 ± 0.32.

Regarding VEKSSPATSLFVELDEEEVKAATT [BCL2L13], the protein stability index is 5.53 ± 0.22 under setting [1] and 5.46 ± 0.2 under setting [2].

Take VELLLSHADCDRRSRIEALELLGA [FEM1B]: the protein stability index is, setting by setting: under setting [1], 2.7 ± 0.19; under setting [2], 2.78 ± 0.21.

Regarding VENNRRDVEAWFNTQTEELNQQVV [KRT36], the protein stability index was 4.67 ± 0.27 under setting [1] and 4.65 ± 0.14 under setting [2].

As to VFCPLDPPPPYEAVVSQMDQEQGS [FAM189A2], the protein stability index was determined as 4.65 ± 0.13 under setting [1] and 4.76 ± 0.2 under setting [2].

VGKVEELIESEAPPKASEQETAKE [C18orf25] returned a protein stability index under setting [1] of 5.53 ± 0.28 and a protein stability index under setting [2] of 5.6 ± 0.27.

In the case of VGNNHESWGWDLGRNRLYHDGKNQ [SPSB1], the protein stability index turned out to be 3.83 ± 0.33 under setting [1] and 3.87 ± 0.42 under setting [2].

In turn, VGPLAQDPQSPMAGLRWLDSWDF [POMT2] had a protein stability index under setting [3] of 3.34 ± 0.38 and a protein stability index under setting [4] of 3.36 ± 0.3.

In the case of VGSDDLERIEARLATLEGDDPSLR [PSD2], the protein stability index is 5.32 ± 0.17 under setting [1] and 5.42 ± 0.17 under setting [2].

On to VGSLSWLRKQLQPTHCKYEGPRKA, for which the protein stability index turned out to be 2.87 ± 0.24 under setting [1] and 2.9 ± 0.21 under setting [2].

VHPTKHEVHFLHEESILERVQQHI [MLH1]: the protein stability index by setting is: under setting [1], 3.18 ± 0.16; under setting [2], 3.28 ± 0.15.

Regarding VHVISLHIWELSSIKNSLKVAAIS [PTGFR], the protein stability index reads like this: under setting [1], 2.86 ± 0.46; under setting [2], 3.07 ± 0.32.

In the case of VILIFHCEFSSERGPRMCRFIRER [CDC25B], the protein stability index is 2.78 ± 1.1 under setting [1] and 2.64 ± 0.83 under setting [2].

Turning to VKAKEQIENYKKQTRNGLGKDHEI [FUT8], the protein stability index came out at 4.59 ± 0.17 under setting [1] and 4.76 ± 0.16 under setting [2].

Regarding VKEISDKISKEEMVRRLKMVVKTF [PDS5B], under setting [2], the protein stability index turned out to be 2.24 ± 0.91.

In the case of VKVLAFTSIGDGPLSSDIQVITQT [PTPRD], the protein stability index is, setting by setting: under setting [1], 2.62 ± 0.48; under setting [2], 2.31 ± 0.37.

Consider VLKKQDAFYKEQLARLEERSSEFY [CHCHD3], for which the protein stability index runs as follows: under setting [1], 3.45 ± 0.34; under setting [2], 3.48 ± 0.12.

As to VLRCQLSAEEVRFPVSVTQQSPAA [C2CD2L], the protein stability index is, setting by setting: under setting [1], 3.3 ± 0.34; under setting [2], 3.45 ± 0.23.

Consider VLVKDNGLGCKDLDLIFHVALPTE [TENT5C], for which the protein stability index was 2.58 ± 0.57 under setting [1] and 2.82 ± 0.73 under setting [2].

In the case of VNLLHIESRKSKRRNSEFEIFVDC [TPH1], the protein stability index was 2.26 ± 0.52 under setting [1] and 2.4 ± 0.35 under setting [2].

Sequence VPGLLLSYLMLVTVMMWPLAVYHR [RETREG3] yielded a protein stability index under setting [1] of 3.33 ± 0.44 and a protein stability index under setting [2] of 3 ± 0.31.

Regarding VPKNYVVVLSDGPALHPAHAPQIS [NCK2], the protein stability index reads like this: under setting [1], 2.42 ± 0.17; under setting [2], 2.61 ± 0.31.

Take VPLGPLGETYCEEHGEKIYFFCEN [TRIM15]: the protein stability index came out at 3.42 ± 0.15 under setting [1] and 3.54 ± 0.36 under setting [2].

In turn, VPRYTGVAPQDQCKLTCQAQALGY [ADAMTS4] yielded a protein stability index under setting [1] of 2.4 ± 0.47 and a protein stability index under setting [2] of 2.65 ± 0.36.

Consider VPTPKSHLQLLGAVCMFLASKLKE [CCND2], for which the protein stability index is, setting by setting: under setting [1], 2.11 ± 0.28; under setting [2], 1.92 ± 0.39.

For VPYCERDYEKMFGTKCHGCDFKID [PDLIM7], the protein stability index was 3.2 ± 0.55 under setting [1] and 3.46 ± 0.22 under setting [2].

As for VQELVLEDLQDGDVRMGGSFRGAF [NET1], the protein stability index runs as follows: under setting [1], 3.38 ± 0.18; under setting [2], 3.47 ± 0.12.

VQETNKQPPQTVNPIGHLPESLTK [ATF4]: the protein stability index came to 4.79 ± 0.24 under setting [1] and 4.86 ± 0.2 under setting [2].

VQGGSEAWGPGTLAAAPEGLEDAG [TEX19]: the protein stability index amounted to 5.12 ± 0.36 under setting [1] and 5.41 ± 0.2 under setting [2].

As for VRDQGPSIPLTPGDTPIRKKEELL [FBF1], the protein stability index is, setting by setting: under setting [1], 5.26 ± 0.21; under setting [2], 5.33 ± 0.12.

Consider VRLMRQLLVINESIESIKWMIEEK [LURAP1L], for which the protein stability index came out at 2.75 ± 0.35 under setting [1] and 2.86 ± 0.45 under setting [2].

On to VRRRYSDFEWLRSELERESKVVVP [SNX3], for which the protein stability index amounted to 2.17 ± 0.12 under setting [1] and 2.33 ± 0.17 under setting [2].

As to VRSGIVEYLSLVKGGQDVKKKVHL [PRIM1], the protein stability index amounted to 2.43 ± 0.26 under setting [1] and 2.28 ± 0.44 under setting [2].

With VRVVFFPLFSNWWIQVTSLRIFVW [PHTF1], the protein stability index under setting [1] was 2.79 ± 0.69 and the protein stability index under setting [2] amounted to 2.87 ± 0.77.

For the sequence VSGDYYPIIYFNDYWNLQKDYYPI [CLPTM1], the protein stability index by setting is: under setting [1], 3.03 ± 0.64; under setting [2], 3.1 ± 0.87.

As to VSKVTGWCRDRLLGHREPSAHPVE [TMEM175], the protein stability index turned out to be 3.21 ± 0.22 under setting [1] and 3.33 ± 0.099 under setting [2].

Take VSLRYSGATAASETLSGHGPLAQP [ADAMTS4]: the protein stability index was found to be 3.08 ± 0.15 under setting [1] and 3.21 ± 0.066 under setting [2].

On to VSSDGTLKYMEVTLRPTDSQSHCY [PCDHGC5], for which the protein stability index is, setting by setting: under setting [1], 2.8 ± 0.38; under setting [2], 2.65 ± 0.23.

On to VTDEEIESLMKDGDKNNDGRIDFD [TNNC2], for which the protein stability index reads like this: under setting [1], 5.52 ± 0.14; under setting [2], 5.46 ± 0.3.

In the case of VTKMFQKIQDLIDDKDALVFVLID [TRIP13], the protein stability index under setting [1] turned out to be 2.72 ± 0.63 and the protein stability index under setting [2] was 2.47 ± 0.17.

Regarding VVEEELFHQQGTPRASNRSCAIM [LMNB1], the protein stability index was 2.77 ± 0.3 under setting [3] and 3.16 ± 0.4 under setting [4].

Turning to VVLDRHGVYGLQRNLLVENIIDIY [TRIM55], the protein stability index under setting [1] is 2.44 ± 0.8 and the protein stability index under setting [2] is 2.81 ± 0.099.

In the case of WAAPRVGPLPPAPAMVRISKPKTF [YPEL3], the protein stability index was determined as 3.15 ± 0.43 under setting [1] and 3.25 ± 0.18 under setting [2].

With WAISSWFRRGPAPQDQAGPGGAPR [CLPTM1], the protein stability index was determined as 2.75 ± 0.47 under setting [1] and 3.21 ± 0.48 under setting [2].

For the sequence WALGCVLYELASLKRAFEAANLPA [NEK8], the protein stability index by setting is: under setting [1], 2.99 ± 0.3; under setting [2], 2.9 ± 0.46.

Regarding WELHSLRHCDDDGRTENGALAPKQ [ZNF24], the protein stability index worked out at 4.91 ± 0.16 under setting [1] and 4.95 ± 0.19 under setting [2].

On to WESSAGGSFTVRADHGEPIGRGTK [HSP90AB1], for which the protein stability index was determined as 4.83 ± 0.28 under setting [1] and 4.79 ± 0.55 under setting [2].

With WILFPLLGCYAVYSLLYLEHKGWY [CLPTM1], the protein stability index was determined as 2.9 ± 0.28 under setting [1] and 3.4 ± 0.072 under setting [2].

As for WKPPDIKGKLMVCYETLPRGQCLL [SPAG8], the protein stability index is 2.27 ± 0.4 under setting [1] and 2.32 ± 0.41 under setting [2].

WSIPWKWLFGATAVALGGVALSVV [FKBP8] returned a protein stability index under setting [1] of 4.11 ± 0.43 and a protein stability index under setting [2] of 3.98 ± 0.14.

WTVWSGNRASLYSFPEPEAAQPMT [PRAME] returned a protein stability index under setting [1] of 2.45 ± 0.034 and a protein stability index under setting [2] of 2.57 ± 0.25.

As to WVCLAYFTSGFNAAALDYEADGST [SPACA3], the protein stability index was found to be 2.9 ± 0.46 under setting [1] and 2.91 ± 0.25 under setting [2].

With WVGFDDVESFKTKVSYLKQKGLGG [CHIT1], the protein stability index amounted to 2.36 ± 0.33 under setting [1] and 2.69 ± 0.36 under setting [2].

For the sequence WWTNWVIPAISAVAVALMYRLYMA [CYB5A], the protein stability index by setting is: under setting [1], 3.22 ± 0.15; under setting [2], 3.29 ± 0.36.

As for YFAIKQEVVTPDNMCMGRTSRGKL [ETS1], the protein stability index is 3.5 ± 0.23 under setting [1] and 3.49 ± 0.22 under setting [2].

In the case of YFFCENDAEFLCVFCREGPTHQAH [TRIM15], the protein stability index came out at 2.26 ± 0.35 under setting [1] and 2.33 ± 0.54 under setting [2].

As to YFFPVIFSKASSSLQLVFGIELME [MAGEA3], the protein stability index is, setting by setting: under setting [1], 3.44 ± 0.27; under setting [2], 2.96 ± 0.25.

On to YFKCVQKDIQPYMRRMVATWMLEV [CCND2], for which the protein stability index reads like this: under setting [1], 2.71 ± 0.55; under setting [2], 2.4 ± 0.45.

In turn, YFRHADPTWQNSIRHNLSLNKCFI [FOXJ1] showed a protein stability index under setting [1] of 2.45 ± 0.41 and a protein stability index under setting [2] of 2.23 ± 0.31.

For YFTWDEVAQRSGCEERWLVIDRKV [FADS1], the protein stability index by setting is: under setting [1], 2.65 ± 0.17; under setting [2], 2.82 ± 0.27.

With YGEFYKSLTNDWEDHLAVKHFSVE [HSP90AB1], the protein stability index by setting is: under setting [1], 2.46 ± 0.31; under setting [2], 2.87 ± 0.28.

Turning to YKDFLWFFSKRFKSAAMLAVFAVS [SOAT1], the protein stability index amounted to 2.25 ± 0.49 under setting [1] and 2.4 ± 0.53 under setting [2].

In the case of YLDVDLTLTREQTERLSHQITSRV [RTN2], the protein stability index reads like this: under setting [1], 3.17 ± 0.18; under setting [2], 3.23 ± 0.34.

Take YLEGFDPFNQSTFNNVVEQNFKNR [DLC1]: the protein stability index reads like this: under setting [1], 2.89 ± 0.26; under setting [2], 3.15 ± 0.39.

Take YLEKYYNLKNDGRQVEKRRNSGPV [MMP1]: the protein stability index stood at 2.68 ± 0.57 under setting [1] and 3.27 ± 0.4 under setting [2].

As for YLNSFLHQRIPQSVRILGSLVAIL [SLC29A1], the protein stability index runs as follows: under setting [1], 2.15 ± 0.25; under setting [2], 2.23 ± 0.21.

Consider YLSNARPDNWFCYPCIPNHELVWA [ZMYND11], for which the protein stability index by setting is: under setting [1], 2.67 ± 0.34; under setting [2], 2.23 ± 0.49.
